“Also recorded” adds a separate entry of the source.

The target of test [1] is T1, FGFR2IIIb.
T1 construct: also called purified FGFR2IIIb
T1 chain: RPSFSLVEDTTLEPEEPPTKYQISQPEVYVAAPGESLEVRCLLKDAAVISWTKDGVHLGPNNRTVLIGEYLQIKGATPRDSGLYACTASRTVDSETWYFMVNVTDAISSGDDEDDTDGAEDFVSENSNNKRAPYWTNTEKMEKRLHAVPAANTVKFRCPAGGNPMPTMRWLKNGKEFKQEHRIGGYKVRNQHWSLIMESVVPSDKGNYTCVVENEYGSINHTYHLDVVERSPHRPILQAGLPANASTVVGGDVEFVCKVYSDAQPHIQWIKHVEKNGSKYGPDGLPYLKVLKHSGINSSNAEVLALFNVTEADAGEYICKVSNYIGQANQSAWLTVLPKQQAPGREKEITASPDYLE
Put plainly: row 'Kd (nM) (patent)', value quoted from the source patent; method: Radioimmunoassay-purified FGFR2IIIb.

Test [2] has as its target FGFR2b alpha IIIb antigen (UniProt P21802). Nature of the test: SPR (Biacore), antibody on chip, FGFR2b alpha IIIb antigen.
Test [3] concerns FGFR2-PHDGH fusion expressing BaF3 cells. Put plainly: ligand stimulated (FGF10) growth of FGFR2-PHGDH fusion expressing BaF3 cells (FIG. 10). It is filed as cell-based. As to conditions: FGF10 present. As to the method: FIG. 10 is a graph showing that antibodies C, D, E and F have activity against ligand stimulated growth of FGFR2-PHDGH fusion expressing BaF3 cells.
The growth of BaF3 cells expressing an FGFR2-PHDGH fusion was assayed in the presence of FGF ligand, FGF10. Antibodies C, D, E and F inhibited ligand stimulated growth of FGFR2-PHDGH fusion expressing BaF3 cells (FIG. 10). Based on the results reported herein above, antagonistic biparatopic antibodies are made using the FGFR2 antibody combinations shown in FIG. 11A. These combinations result in increased growth inhibition effects in oncogenic or cancer cells (e.g., transformed BaF3 cells) that overexpressed […]. Thus, antibodies that bind to epitopes have increased inhibitory and killing effects against cancer cells. Designs for antagonistic biparatopic antibodies are shown at FIGS. 11B and 11C. Advantageously, including complementary mutations in VH-VL and CH1-CL on one-half of the biparatopic antibody results in preferential heterodimeric pairing between two different chains rather than chains from the other half of the same antibody. Alternatively, a linker method is used to create scFab, scFv, or DuoBodies. In this method two antibody chains are each generated in different cells and mixed in vitro. Such methods are known in the art and described, for example, by K. Ding et al, March 2017, Appl. Microbiol. […]

Test [4] deals with T2, FGFR2 receptor dimerization (Homo sapiens, UniProt P21802).
T2 construct: expressed in transfected cells
Put plainly: NANOBIT assay of FGFR2 dimerization. As to conditions: increasing antibody concentrations, cells stably expressing FGFR2. It is filed as cell-based. An excerpt:
FIG. 16A-16F provide schematic illustrations, blots and graphs related to the development of a NANOBIT® assay to measure FGFR2 dimerization. Such an assay is used to screen biparatopic screening for their ability to disrupt FGFR2 dimerization. […] The protein interactions bring the subunits into close proximity to form a functional enzyme that generates a bright, luminescent signal. (FIG. 16B). […] FIG. 16E presents a graph of the results of the NANOBIT® assay using NANOBIT® constructs with or without FGF10 ligand. […] As shown in the graph on the left side of FIG. 16F, certain of the antibodies A-F inhibited the growth of BaF3 cells stably overexpressing FGFR2 (FGFR2IIIb). Antibody D was used in the NANOBIT® assay (graph on the right of FIG. 16F). In the rightmost graph in FIG. 16F, the fold luminescence resulting from FGFR2 WT (wild type) in the assay is represented by the left bar in each set of three bars; the fold luminescence resulting from FGFR2+FGF10 ligand in the assay is represented by the middle bar in each set of three bars; and the fold luminescence resulting from +/−FGF10 ligand difference in the assay is represented by the right bar in each set of three bars shown in FIG. 16F.
A NANOBIT® assay was developed to measure FGFR2 dimerization in cells, and in particular to screen for biparatopic antibodies that were able to disrupt FGFR2 dimerization. […]

Test [5] addresses FGFR2 on SNU-16 gastric cancer cell line with FGFR2 amplification (UniProt P21802). Put plainly: FACS on SNU-16 cells, % No. of cells with FITC+.
Test [6] concerns the target FGFR2b alpha IIIb antigen (UniProt P21802). Nature of the test: SPR (Biacore), antibody immobilized, FGFR2b alpha IIIb in flow.

T2 sequence (P21802 22-822 isoform P21802-3 limits assumed): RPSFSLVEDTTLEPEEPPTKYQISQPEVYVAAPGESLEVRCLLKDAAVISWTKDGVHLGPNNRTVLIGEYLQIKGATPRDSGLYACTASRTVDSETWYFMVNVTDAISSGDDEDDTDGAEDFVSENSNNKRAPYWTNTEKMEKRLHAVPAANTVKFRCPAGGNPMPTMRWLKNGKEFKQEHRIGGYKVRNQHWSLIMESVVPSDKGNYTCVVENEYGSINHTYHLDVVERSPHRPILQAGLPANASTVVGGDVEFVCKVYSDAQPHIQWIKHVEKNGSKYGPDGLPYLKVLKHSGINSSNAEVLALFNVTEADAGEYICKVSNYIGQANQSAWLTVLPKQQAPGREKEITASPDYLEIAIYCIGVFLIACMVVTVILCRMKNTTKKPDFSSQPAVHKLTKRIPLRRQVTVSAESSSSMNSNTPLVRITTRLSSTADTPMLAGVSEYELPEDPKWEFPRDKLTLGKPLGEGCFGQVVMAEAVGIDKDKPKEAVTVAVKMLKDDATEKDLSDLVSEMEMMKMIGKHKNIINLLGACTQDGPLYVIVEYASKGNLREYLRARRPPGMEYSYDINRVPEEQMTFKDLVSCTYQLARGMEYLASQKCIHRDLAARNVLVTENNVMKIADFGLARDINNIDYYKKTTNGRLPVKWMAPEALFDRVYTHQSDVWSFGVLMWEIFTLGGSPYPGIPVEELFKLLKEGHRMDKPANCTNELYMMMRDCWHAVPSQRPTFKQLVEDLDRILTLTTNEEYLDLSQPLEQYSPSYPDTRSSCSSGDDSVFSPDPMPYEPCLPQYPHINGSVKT
T2 sequence (P21802 22-822 isoform P21802-3 limits assumed): as above

B1: 2B 1.3.12 (antibody, V domains shown)
VH: EVQLVESGGGLVQPGGSLRLSCAASGFPFTSTGISWVRQAPGKGLEWVGRTHLGDGSTNYADSVKGRFTISADTSKNTAYLQMNSLRAEDTAVYYCARTYGIYDTYDMYTEYVMDYWGQGTLVTVSS
VL: DIQMTQSPSSLSASVGDRVTITCRASQDVDTSLAWYKQKPGKAPKLLIYSASFLYSGVPSRFSGSGSGTDFTLTISSLQPEDFATYYCQQSTGHPQTFGQGTKVEIK
notes: the duobody scheme implies IgG1 with K409R or F405L; also called Antibody D; GE
Regarding B1, the results for the dissociation constant (Kd) in test [1] and in test [2] were 3 nM and 0.99 nM, respectively. Besides, the “inhibition of ligand stimulated growth of FGFR2-PHGDH fusion expressing BaF3 cells” value in test [3] is recorded as “have activity; also recorded: inhibited”. The “blocking of FGF-induced dimerization of the FGFR2 receptor” value in test [4] is “blocks”. The same molecule had a 50% effective concentration (EC50 (read off the curve)) in test [5] of 0.3 µg/mL. Besides, the Binding Stoichiometry in test [6] is 1.9.

Usually Kd stands for the constant that tells how readily two partners part at equilibrium. Read a high Kd as weaker binding. A word on the EC50 (read off the curve): it is the concentration giving half of the maximal effect. A higher EC50 (read off the curve) goes with lower potency in that assay.
